From paper PMC5292684, “High affinity anchoring of the decoration protein pb10 onto the bacteriophage T5 capsid” (Scientific Reports, 2017)
Where a chain is given by its changes, count along the chain named. In names and notes the source's numbering stands.

B1: decoration protein pb10 of bacteriophage T5, full-length, fused to a C-terminal histidine tag (natural protein, UniProt Q6QGD6 1-164, looked up)
chain: MIDYSGLRTIFGEKLPESHIFFATVAAHKYVPSYAFLRRELGLSSAHTNRKVWKKFVEAYGKAIPPAPPAPPLTLSKDLTASMSVEEGAALTLSVTATGGTGPYTYAWTKDGSPIPDASGATYTKPTAAAEDAGSYKVTVTDSKQVSKDSTTCAVTVNPTVPGG
notes: decoration protein pb10 of bacteriophage T5, 164 amino acids, GenBank AAU05286; Monomer by SEC-MALLS (17 kDa); 18.3 kDa with the His tag; also called pb10-His; His-tagged pb10; source: pET28b expression vector, purified (expression and purification detailed in SI); not shown: His-Tag, C-terminal, kept
B2: pb10 R38A (natural protein)
chain: B1 chain with R38A
B3: pb10 F36A (natural protein)
chain: B1 chain with F36A
B4: pb10 F36A-R38E (natural protein)
chain: B1 chain with F36A, R38E
B5: pb10 R38E (natural protein)
chain: B1 chain with R38E
B6: pb10 Y34A-R38E (natural protein)
chain: B1 chain with Y34A, R38E
B7: pb10 F36A-R38A (natural protein)
chain: B1 chain with F36A, R38A
B8: major capsid protein pb8 of bacteriophage T5 (natural protein, UniProt Q6QGD8 160-458, looked up)
chain: AVNQSSSVEVSSESYETIFSQRIIRDLQKELVVGALFEELPMSSKILTMLVEPDAGKATWVAASTYGTDTTTGEEVKGALKEIHFSTYKLAAKSFITDETEEDAIFSLLPLLRKRLIEAHAVSIEEAFMTGDGSGKPKGLLTLASEDSAKVVTEAKADGSVLVTAKTISKLRRKLGRHGLKLSKLVLIVSMDAYYDLLEDEEWQDVAQVGNDSVKLQGQVGRIYGLPVVVSEYFPAKANSAEFAVIVYKDNFVMPRQRAVTVERERQAGKQRDAYYVTQRVNLQRYFANGVVSGTYAAS
notes: major capsid protein (head protein) pb8 of bacteriophage T5, after its N-terminal scaffolding domain is cleaved off by the protease pb11; as a hexamer of the expanded capsid; Hexamer within the capsid lattice; the deposited model 5TJT is a homology model flexibly fitted into the cryo-EM map; also called head protein
B9: pb10 N-terminal domain (NTD), residues 1 to 77 (domain or fragment)
chain: MIDYSGLRTIFGEKLPESHIFFATVAAHKYVPSYAFLRRELGLSSAHTNRKVWKKFVEAYGKAIPPAPPAPPLTLSK

Key:
[1] = biological target: bacteriophage T5 empty expanded capsid (without pb10) (bacteriophage T5); test: SPR; T200, 25 °C, PBS (137 mM NaCl) with 1 mg/mL BSA; expanded capsids captured on a CM5 chip through immobilised rabbit anti-capsid antibodies; pb10 variants 0.09 to 40 nM injected at 50 uL/min; koff set at 2 x 10^-4 s^-1 for all proteins; global fit to a Langmuir mass transport-limited model
[2] = biological target: bacteriophage T5 empty expanded capsid (without pb10) (bacteriophage T5); test: SPR; as a3 but PBS containing 750 mM NaCl; koff set at 2 x 10^-4 s^-1; single experiment
Target sequence in this assay (Q6QGD5 11-403 limits assumed): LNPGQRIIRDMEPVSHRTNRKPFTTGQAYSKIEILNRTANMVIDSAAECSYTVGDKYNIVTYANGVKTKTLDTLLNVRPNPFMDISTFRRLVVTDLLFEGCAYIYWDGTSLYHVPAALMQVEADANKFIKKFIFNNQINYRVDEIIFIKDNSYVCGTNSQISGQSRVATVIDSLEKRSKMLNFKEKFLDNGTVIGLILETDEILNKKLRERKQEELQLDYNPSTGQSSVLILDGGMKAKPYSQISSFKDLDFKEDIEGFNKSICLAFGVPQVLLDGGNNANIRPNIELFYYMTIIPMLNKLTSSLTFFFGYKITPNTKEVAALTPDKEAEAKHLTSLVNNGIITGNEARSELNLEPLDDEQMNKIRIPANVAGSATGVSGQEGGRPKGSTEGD

[3] = biological target: bacteriophage T5 empty expanded capsid (without pb10) (bacteriophage T5); test: SPR; as a3 but PBS containing 300 mM NaCl; koff set at 2 x 10^-4 s^-1; single experiment
Target sequence in this assay (Q6QGD5 11-403 limits assumed): as above

[4] = biological target: bacteriophage T5 empty expanded capsid (without pb10) (bacteriophage T5); test: SPR; as a3 but PBS containing 500 mM NaCl; koff set at 2 x 10^-4 s^-1; single experiment
Target sequence in this assay (Q6QGD5 11-403 limits assumed): as above

[5] = biological target: B8; test: cryo-EM structure; icosahedral reconstructions of empty expanded capsids with pb10 (9 Å) and without pb10 (8 Å); pb8 homology model fitted into the hexamer density; details: both partners purified
[6] = biological target: the molecule itself; test: as above

Row | Binder | Kd [1] | koff [1] | kon [1] | also measured
1 | B1 | 1.11 pM | 0.0002 s⁻¹ | 1.8e+08 M⁻¹ s⁻¹ | maximum mass increase of the capsid on decoration [1]: 8%; signal decrease over 700 s of dissociation [1]: 7%; Kd [2]: 22.2 pM; koff [2]: 0.0002 s⁻¹; kon [2]: 9.01e+06 M⁻¹ s⁻¹; Kd [3]: 1.8 pM; koff [3]: 0.0002 s⁻¹; kon [3]: 1.11e+08 M⁻¹ s⁻¹; Kd [4]: 4.2 pM; koff [4]: 0.0002 s⁻¹; kon [4]: 4.76e+07 M⁻¹ s⁻¹; binding result [5]: binds
2 | B2 | 1.67 pM | 0.0002 s⁻¹ | 1.2e+08 M⁻¹ s⁻¹ | 
3 | B3 | 0.23 pM | 0.0002 s⁻¹ | 8.66e+08 M⁻¹ s⁻¹ | 
4 | B4 | 10.3 pM | 0.0002 s⁻¹ | 1.95e+07 M⁻¹ s⁻¹ | 
5 | B5 | 2.36 pM | 0.0002 s⁻¹ | 8.47e+07 M⁻¹ s⁻¹ | 
6 | B6 | 480 pM | 0.0002 s⁻¹ | 417000 M⁻¹ s⁻¹ | 
7 | B7 | 3.27 pM | 0.0002 s⁻¹ | 6.11e+07 M⁻¹ s⁻¹ | 
8 | B8 |  |  |  | stoichiometry N [6]: 6
9 | B9 | 0.55 pM | 0.0002 s⁻¹ | 3.62e+08 M⁻¹ s⁻¹ | 
